According to paper PMC11088181, “Monocytes release cystatin F dimer to associate with Aβ and aggravate amyloid pathology and cognitive deficits in Alzheimer’s disease” (Journal of Neuroinflammation, 2024):

B1: cystatin F in human plasma (natural protein, human (endogenous in plasma), UniProt O76096 20-145, looked up)
chain: GPSPDTCSQDLNSRVKPGFPKTIKTNDPGVLQAARYSVEKFNNCTNDMFLFKESRITRALVQIVKGLKYMLEVEIGRTTCKKNQHLRLDDCDFQTNHTLKQTLSCYSEVWVVPWLQHFEVPVLRCH
notes: cystatin F, secreted form in plasma; also called secreted cystatin F; cystatin F dimer; source: endogenous, human plasma (AD patients and controls)
B2: native cystatin F in cultured monocytes (natural protein, UniProt O76096 20-145, looked up)
chain: GPSPDTCSQDLNSRVKPGFPKTIKTNDPGVLQAARYSVEKFNNCTNDMFLFKESRITRALVQIVKGLKYMLEVEIGRTTCKKNQHLRLDDCDFQTNHTLKQTLSCYSEVWVVPWLQHFEVPVLRCH
notes: cystatin F of cultured monocytes; also called intracellular cystatin F protein; extracellular proteins; source: endogenous, cultured monocytes (intracellular and extracellular)

Molecular target: the molecule itself
Assay: native gel or EMSA; nondenaturing gel (loading buffer without DTT) and western blot with anti-cystatin F; plasma diluted in PBS, or cultured monocytes

Row | Protein | stoichiometry N
1 | B1 | 2
2 | B2 | 2
